Source: patent publication US20170072013A1 (MEDINCELL, published 2017)
Square brackets hold non-standard residues; d marks the D form.

B1: Analog 8 (SEQ ID NO:9), Ac-rlGwsvGipGswrplpaappppadlrdq-NH2 (peptide)
peptide: Ac-[dR][dL]G[dW][dS][dV]G[dI][dP]G[dS][dW][dR][dP][dL][dP][dA][dA][dP][dP][dP][dP][dA][dD][dL][dR][dD][dQ]-NH2
SMILES: CC[C@@H](C)[C@@H](NC(=O)CNC(=O)[C@H](NC(=O)[C@@H](CO)NC(=O)[C@@H](Cc1c[nH]c2ccccc12)NC(=O)CNC(=O)[C@@H](CC(C)C)NC(=O)[C@@H](CCCNC(=N)N)NC(C)=O)C(C)C)C(=O)N1CCC[C@@H]1C(=O)NCC(=O)N[C@H](CO)C(=O)N[C@H](Cc1c[nH]c2ccccc12)C(=O)N[C@H](CCCNC(=N)N)C(=O)N1CCC[C@@H]1C(=O)N[C@H](CC(C)C)C(=O)N1CCC[C@@H]1C(=O)N[C@H](C)C(=O)N[C@H](C)C(=O)N1CCC[C@@H]1C(=O)N1CCC[C@@H]1C(=O)N1CCC[C@@H]1C(=O)N1CCC[C@@H]1C(=O)N[C@H](C)C(=O)N[C@H](CC(=O)O)C(=O)N[C@H](CC(C)C)C(=O)N[C@H](CCCNC(=N)N)C(=O)N[C@H](CC(=O)O)C(=O)N[C@H](CCC(N)=O)C(N)=O
B2: Analog 3 (SEQ ID NO:4), Ac-rlGwsvGipGswrplpa-NH2 (peptide)
peptide: Ac-[dR][dL]G[dW][dS][dV]G[dI][dP]G[dS][dW][dR][dP][dL][dP][dA]-NH2
SMILES: CC[C@@H](C)[C@@H](NC(=O)CNC(=O)[C@H](NC(=O)[C@@H](CO)NC(=O)[C@@H](Cc1c[nH]c2ccccc12)NC(=O)CNC(=O)[C@@H](CC(C)C)NC(=O)[C@@H](CCCNC(=N)N)NC(C)=O)C(C)C)C(=O)N1CCC[C@@H]1C(=O)NCC(=O)N[C@H](CO)C(=O)N[C@H](Cc1c[nH]c2ccccc12)C(=O)N[C@H](CCCNC(=N)N)C(=O)N1CCC[C@@H]1C(=O)N[C@H](CC(C)C)C(=O)N1CCC[C@@H]1C(=O)N[C@H](C)C(N)=O
B3: Analog 16 (SEQ ID NO:21), c(rlGwsvGipGswrplparlGwsvGipGswrplpa) (peptide)
peptide: cyclo([dR][dL]G[dW][dS][dV]G[dI][dP]G[dS][dW][dR][dP][dL][dP][dA][dR][dL]G[dW][dS][dV]G[dI][dP]G[dS][dW][dR][dP][dL][dP][dA])
SMILES: CC[C@@H](C)[C@H]1NC(=O)CNC(=O)[C@@H](C(C)C)NC(=O)[C@@H](CO)NC(=O)[C@@H](Cc2c[nH]c3ccccc23)NC(=O)CNC(=O)[C@@H](CC(C)C)NC(=O)[C@@H](CCCNC(=N)N)NC(=O)[C@@H](C)NC(=O)[C@H]2CCCN2C(=O)[C@@H](CC(C)C)NC(=O)[C@H]2CCCN2C(=O)[C@@H](CCCNC(=N)N)NC(=O)[C@@H](Cc2c[nH]c3ccccc23)NC(=O)[C@@H](CO)NC(=O)CNC(=O)[C@H]2CCCN2C(=O)[C@@H]([C@H](C)CC)NC(=O)CNC(=O)[C@@H](C(C)C)NC(=O)[C@@H](CO)NC(=O)[C@@H](Cc2c[nH]c3ccccc23)NC(=O)CNC(=O)[C@@H](CC(C)C)NC(=O)[C@@H](CCCNC(=N)N)NC(=O)[C@@H](C)NC(=O)[C@H]2CCCN2C(=O)[C@@H](CC(C)C)NC(=O)[C@H]2CCCN2C(=O)[C@@H](CCCNC(=N)N)NC(=O)[C@@H](Cc2c[nH]c3ccccc23)NC(=O)[C@@H](CO)NC(=O)CNC(=O)[C@H]2CCCN2C1=O
B4: Analog 15 (SEQ ID NO:20), c(rlGwsvGipGswrplpa) (peptide)
peptide: cyclo([dR][dL]G[dW][dS][dV]G[dI][dP]G[dS][dW][dR][dP][dL][dP][dA])
SMILES: CC[C@@H](C)[C@H]1NC(=O)CNC(=O)[C@@H](C(C)C)NC(=O)[C@@H](CO)NC(=O)[C@@H](Cc2c[nH]c3ccccc23)NC(=O)CNC(=O)[C@@H](CC(C)C)NC(=O)[C@@H](CCCNC(=N)N)NC(=O)[C@@H](C)NC(=O)[C@H]2CCCN2C(=O)[C@@H](CC(C)C)NC(=O)[C@H]2CCCN2C(=O)[C@@H](CCCNC(=N)N)NC(=O)[C@@H](Cc2c[nH]c3ccccc23)NC(=O)[C@@H](CO)NC(=O)CNC(=O)[C@H]2CCCN2C1=O
B5: Analog 14 (SEQ ID NO:15), Ac-rlawsvaipaswrplpa-NH2 (peptide)
peptide: Ac-[dR][dL][dA][dW][dS][dV][dA][dI][dP][dA][dS][dW][dR][dP][dL][dP][dA]-NH2
SMILES: CC[C@@H](C)[C@@H](NC(=O)[C@@H](C)NC(=O)[C@H](NC(=O)[C@@H](CO)NC(=O)[C@@H](Cc1c[nH]c2ccccc12)NC(=O)[C@@H](C)NC(=O)[C@@H](CC(C)C)NC(=O)[C@@H](CCCNC(=N)N)NC(C)=O)C(C)C)C(=O)N1CCC[C@@H]1C(=O)N[C@H](C)C(=O)N[C@H](CO)C(=O)N[C@H](Cc1c[nH]c2ccccc12)C(=O)N[C@H](CCCNC(=N)N)C(=O)N1CCC[C@@H]1C(=O)N[C@H](CC(C)C)C(=O)N1CCC[C@@H]1C(=O)N[C@H](C)C(N)=O

These binders were tested against T1, human TREK-1 potassium channel expressed in the h-TREK-1/HEK cell line (human, UniProt O95069 1-426) (assay: cell-based or functional assay).
T1 sequence (looked up): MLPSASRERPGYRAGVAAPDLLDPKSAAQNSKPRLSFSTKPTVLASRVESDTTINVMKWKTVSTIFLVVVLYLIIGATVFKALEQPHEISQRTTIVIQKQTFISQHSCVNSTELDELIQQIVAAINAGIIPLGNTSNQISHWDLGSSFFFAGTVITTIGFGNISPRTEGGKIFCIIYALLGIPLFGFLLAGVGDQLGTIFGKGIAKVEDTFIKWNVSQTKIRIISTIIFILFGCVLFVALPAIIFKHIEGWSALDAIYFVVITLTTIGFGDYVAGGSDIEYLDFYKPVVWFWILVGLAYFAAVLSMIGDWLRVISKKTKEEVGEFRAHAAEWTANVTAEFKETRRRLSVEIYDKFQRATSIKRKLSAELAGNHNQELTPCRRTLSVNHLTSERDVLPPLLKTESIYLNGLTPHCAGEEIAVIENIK
With B1 the “IC50 of TREK-1 current inhibition (dose-response, whole cell patch clamp, 0 mV)” value (from here on “IC50 of TREK-1 current inhibition”) was 9950 pM and the “fold higher affinity for TREK-1 channels than spadin, inferred from the IC50 of current inhibition” value was 6 fold. For Ac-APLPRWSGPIGVSWGLR-NH2 [Analog 2 (SEQ ID NO:3), Ac-APLPRWSGPIGVSWGLR-NH2], the “IC50 of TREK-1 current inhibition” value was 60000 pM. In the case of B2, the “IC50 of TREK-1 current inhibition” value is reported as 11500 pM and the “fold higher affinity for TREK-1 channels than spadin, inferred from the IC50 of current inhibition” value is reported as 6 fold. With Ac-APLPRWSAPIAVSWALR-NH2 [Analog 13 (SEQ ID NO:14), Ac-APLPRWSAPIAVSWALR-NH2] the “IC50 of TREK-1 current inhibition” value was 40 pM. With B3 the “IC50 of TREK-1 current inhibition” value was 1 pM. For B4, the “IC50 of TREK-1 current inhibition” value was 40 pM. B5 was tested, and the “IC50 of TREK-1 current inhibition” value was 4 pM.
